Measured values as given in patent US20100260668A1 (published 2010).

B1: DVD445 (bispecific antibody, human IgG1, kappa)
heavy: not shown
light: DIVMTQSPDSLAVSLGERATISCRASESVDNYGISFMKWFQQKPGQPPKLLIYAASNQGSGVPDRFSGSGSGTDFTLTISSLQAEDVAVYYCQQSKEVPWTFGGGTKVEIKRTVAAPDIQMTQSPSSLSASVGDRVTITCRASQVIRRSLAWYQQKPGKAPKLLIYAASNLASGVPSRFSGSGSGTDFTLTISSLQPEDFATYYCQQSNTSPLTFGQGTKVEIKRTVAAPSVFIFPPSDEQLKSGTASVVCLLNNFYPREAKVQWKVDNALQSGNSQESVTEQDSKDSTYSLSSTLTLSKADYEKHKVYACEVTHQGLSSPVTKSFNRGEC
notes: DVD-Ig; N-term; AB069 (DLL4), C-term; AB071 (VEGF); HC linker short, LC linker short; also called DVD445H; DVD445L
B2: DVD457 (bispecific antibody, human IgG1, kappa, L234A L235A)
heavy: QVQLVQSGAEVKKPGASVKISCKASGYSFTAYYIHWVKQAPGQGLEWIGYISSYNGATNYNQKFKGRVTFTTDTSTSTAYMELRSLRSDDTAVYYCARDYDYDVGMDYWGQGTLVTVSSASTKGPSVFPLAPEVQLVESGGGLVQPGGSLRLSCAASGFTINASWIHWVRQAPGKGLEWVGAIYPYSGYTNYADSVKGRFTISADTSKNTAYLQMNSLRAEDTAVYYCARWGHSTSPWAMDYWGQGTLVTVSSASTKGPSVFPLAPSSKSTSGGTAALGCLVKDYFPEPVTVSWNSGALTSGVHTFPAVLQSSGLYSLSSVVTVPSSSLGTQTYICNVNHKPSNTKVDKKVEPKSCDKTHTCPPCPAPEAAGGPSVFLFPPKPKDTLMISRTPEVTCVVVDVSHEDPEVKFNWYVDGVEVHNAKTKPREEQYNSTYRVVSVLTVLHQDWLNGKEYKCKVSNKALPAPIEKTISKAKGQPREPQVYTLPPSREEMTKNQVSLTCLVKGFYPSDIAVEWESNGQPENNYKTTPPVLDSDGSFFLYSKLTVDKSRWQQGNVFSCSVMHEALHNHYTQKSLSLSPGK
light: DIVMTQSPDSLAVSLGERATISCRASESVDNYGISFMKWFQQKPGQPPKLLIYAASNQGSGVPDRFSGSGSGTDFTLTISSLQAEDVAVYYCQQSKEVPWTFGGGTKVEIKRTVAAPDIQMTQSPSSLSASVGDRVTITCRASQVIRRSLAWYQQKPGKAPKLLIYAASNLASGVPSRFSGSGSGTDFTLTISSLQPEDFATYYCQQSNTSPLTFGQGTKVEIKRTVAAPSVFIFPPSDEQLKSGTASVVCLLNNFYPREAKVQWKVDNALQSGNSQESVTEQDSKDSTYSLSSTLTLSKADYEKHKVYACEVTHQGLSSPVTKSFNRGEC
notes: DVD-Ig; N-term; AB069 (DLL4), C-term; AB071 (VEGF); HC linker long, LC linker short; also called DVD457H; DVD457L
B3: DVD521 (bispecific antibody, human IgG1, kappa, lambda, L234A L235A)
heavy: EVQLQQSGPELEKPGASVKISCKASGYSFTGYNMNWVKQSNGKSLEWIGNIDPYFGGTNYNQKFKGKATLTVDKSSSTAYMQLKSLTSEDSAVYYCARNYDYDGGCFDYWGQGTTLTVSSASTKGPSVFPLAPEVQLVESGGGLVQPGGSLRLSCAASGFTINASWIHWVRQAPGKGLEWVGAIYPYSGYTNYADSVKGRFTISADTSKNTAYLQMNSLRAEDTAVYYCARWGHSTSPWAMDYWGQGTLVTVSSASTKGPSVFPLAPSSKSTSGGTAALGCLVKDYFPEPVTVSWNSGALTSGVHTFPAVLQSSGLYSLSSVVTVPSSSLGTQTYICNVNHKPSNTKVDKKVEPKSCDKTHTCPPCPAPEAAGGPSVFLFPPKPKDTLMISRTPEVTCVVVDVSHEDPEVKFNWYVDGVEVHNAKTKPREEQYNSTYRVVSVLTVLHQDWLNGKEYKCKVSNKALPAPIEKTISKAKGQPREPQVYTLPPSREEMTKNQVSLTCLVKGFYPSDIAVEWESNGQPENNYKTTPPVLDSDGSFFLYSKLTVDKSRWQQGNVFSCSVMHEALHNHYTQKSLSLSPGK
light: QAVVTQESALTTSPGETVTLTCRSSTGAVTTSNYANWVQEKPDHLFTGLIGGTNNRAPGVPARFSGSLIGDKAALTITGAQTEDEAIYFCALWYSNHWVFGGGTKLTVLGQPKAAPSVTLFPPDIQMTQSPSSLSASVGDRVTITCRASQVIRRSLAWYQQKPGKAPKLLIYAASNLASGVPSRFSGSGSGTDFTLTISSLQPEDFATYYCQQSNTSPLTFGQGTKVEIKRTVAAPSVFIFPPSDEQLKSGTASVVCLLNNFYPREAKVQWKVDNALQSGNSQESVTEQDSKDSTYSLSSTLTLSKADYEKHKVYACEVTHQGLSSPVTKSFNRGEC
notes: DVD-Ig; N-term; AB073 (DLL4), C-term; AB071 (VEGF); HC linker long, LC linker long; also called DVD521H; DVD521L
B4: DVD533 (bispecific antibody, human IgG1, kappa, lambda, L234A L235A)
heavy: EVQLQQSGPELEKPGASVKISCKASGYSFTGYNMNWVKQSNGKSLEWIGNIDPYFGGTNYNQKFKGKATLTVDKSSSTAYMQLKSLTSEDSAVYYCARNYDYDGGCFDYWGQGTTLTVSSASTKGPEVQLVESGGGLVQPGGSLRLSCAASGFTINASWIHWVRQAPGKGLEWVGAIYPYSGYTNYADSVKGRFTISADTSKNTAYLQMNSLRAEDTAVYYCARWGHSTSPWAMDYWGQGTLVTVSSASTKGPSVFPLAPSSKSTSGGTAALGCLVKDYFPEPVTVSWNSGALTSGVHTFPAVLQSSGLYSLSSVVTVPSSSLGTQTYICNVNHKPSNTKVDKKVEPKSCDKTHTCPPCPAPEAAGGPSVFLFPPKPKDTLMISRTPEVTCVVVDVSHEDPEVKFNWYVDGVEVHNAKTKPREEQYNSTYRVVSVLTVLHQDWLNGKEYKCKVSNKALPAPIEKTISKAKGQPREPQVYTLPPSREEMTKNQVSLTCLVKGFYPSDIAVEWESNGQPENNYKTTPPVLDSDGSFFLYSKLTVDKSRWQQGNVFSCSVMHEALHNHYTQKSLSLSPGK
light: QAVVTQESALTTSPGETVTLTCRSSTGAVTTSNYANWVQEKPDHLFTGLIGGTNNRAPGVPARFSGSLIGDKAALTITGAQTEDEAIYFCALWYSNHWVFGGGTKLTVLGQPKAAPSVTLFPPDIQMTQSPSSLSASVGDRVTITCRASQVIRRSLAWYQQKPGKAPKLLIYAASNLASGVPSRFSGSGSGTDFTLTISSLQPEDFATYYCQQSNTSPLTFGQGTKVEIKRTVAAPSVFIFPPSDEQLKSGTASVVCLLNNFYPREAKVQWKVDNALQSGNSQESVTEQDSKDSTYSLSSTLTLSKADYEKHKVYACEVTHQGLSSPVTKSFNRGEC
notes: DVD-Ig; N-term; AB073 (DLL4), C-term; AB071 (VEGF); HC linker short, LC linker long; also called DVD533H; DVD533L
B5: DVD497 (bispecific antibody, human IgG1, kappa)
heavy: not shown
light: DIQMTQSSSYLSVSLGGRVTITCKASDHINNWLAWYQQKPGNAPRLLISGATSLETGVPSRFSGSGSGKDYTLSITSLQTEDVATYYCQQYWSIPLTFGAGTKLELKRTVAAPSVFIFPPDIQMTQSPSSLSASVGDRVTITCRASQVIRRSLAWYQQKPGKAPKLLIYAASNLASGVPSRFSGSGSGTDFTLTISSLQPEDFATYYCQQSNTSPLTFGQGTKVEIKRTVAAPSVFIFPPSDEQLKSGTASVVCLLNNFYPREAKVQWKVDNALQSGNSQESVTEQDSKDSTYSLSSTLTLSKADYEKHKVYACEVTHQGLSSPVTKSFNRGEC
notes: DVD-Ig; N-term; AB072 (DLL4), C-term; AB071 (VEGF); HC linker long, LC linker long; also called DVD497H; DVD497L
B6: DVD506 (bispecific antibody, human IgG1, kappa)
heavy: not shown
light: DIQMTQSPSSLSASVGDRVTITCSASQDISNYLNWYQQKPGKAPKVLIYFTSSLHSGVPSRFSGSGSGTDFTLTISSLQPEDFATYYCQQYSTVPWTFGQGTKVEIKRTVAAPSVFIFPPDIQMTQSSSYLSVSLGGRVTITCKASDHINNWLAWYQQKPGNAPRLLISGATSLETGVPSRFSGSGSGKDYTLSITSLQTEDVATYYCQQYWSIPLTFGAGTKLELKRTVAAPSVFIFPPSDEQLKSGTASVVCLLNNFYPREAKVQWKVDNALQSGNSQESVTEQDSKDSTYSLSSTLTLSKADYEKHKVYACEVTHQGLSSPVTKSFNRGEC
notes: DVD-Ig; N-term; AB014 (VEGF), C-term; AB072 (DLL4); HC linker short, LC linker long; also called DVD506H; DVD506L
B7: DVD515 (bispecific antibody, human IgG1, kappa)
heavy: not shown
light: QAVVTQESALTTSPGETVTLTCRSSTGAVTTSNYANWVQEKPDHLFTGLIGGTNNRAPGVPARFSGSLIGDKAALTITGAQTEDEAIYFCALWYSNHWVFGGGTKLTVLGQPKAAPDIQMTQSPSSLSASVGDRVTITCRASQVIRRSLAWYQQKPGKAPKLLIYAASNLASGVPSRFSGSGSGTDFTLTISSLQPEDFATYYCQQSNTSPLTFGQGTKVEIKRTVAAPSVFIFPPSDEQLKSGTASVVCLLNNFYPREAKVQWKVDNALQSGNSQESVTEQDSKDSTYSLSSTLTLSKADYEKHKVYACEVTHQGLSSPVTKSFNRGEC
notes: DVD-Ig; N-term; AB073 (DLL4), C-term; AB071 (VEGF); HC linker short, LC linker short; also called DVD515H; DVD515L

The binders below were run against T1, VEGF (UniProt P15692-4 27-191) (assay: BIACORE SPR).
T1 construct: Bought reagent; also called vascular endothelial growth factor
T1 sequence (P15692 other isoform, or with tags, fused parts or gaps limits assumed): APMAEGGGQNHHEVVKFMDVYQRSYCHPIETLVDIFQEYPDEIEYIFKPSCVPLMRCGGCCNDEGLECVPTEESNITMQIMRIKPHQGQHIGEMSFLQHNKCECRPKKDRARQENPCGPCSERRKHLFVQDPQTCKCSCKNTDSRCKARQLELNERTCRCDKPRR
Binder B1 has a Kd of 0.272 nM, a koff of 1.8 s⁻¹ and a kon of 6.64e+09 M⁻¹ s⁻¹. In the case of B2, the Kd is reported as 0.307 nM, the koff is reported as 5.43e-05 s⁻¹ and the kon is reported as 177000 M⁻¹ s⁻¹. Binder B3 has a Kd of 0.882 nM, a koff of 0.000588 s⁻¹ and a kon of 666000 M⁻¹ s⁻¹. B4 was tested, and the Kd was 0.825 nM, the koff was 0.000501 s⁻¹ and the kon was 608000 M⁻¹ s⁻¹. Work on B5 yielded a Kd of 0.668 nM, a koff of 8.37e-05 s⁻¹ and a kon of 125000 M⁻¹ s⁻¹. B6 gave a Kd of 0.281 nM, a koff of 0.000171 s⁻¹ and a kon of 606000 M⁻¹ s⁻¹. B7 gave a Kd of 1.45 nM, a koff of 0.000585 s⁻¹ and a kon of 405000 M⁻¹ s⁻¹.
